Results as given in the supplement of paper PMC9233669.
This sample holds only a part of the variants without activity.

These sequences were tested on biotinyl-Phe-oxazolone (assay: self-aminoacylation, catalytic enhancement (BFO) (fold over background); higher = more active; k-Seq, kA / k0A0; sequences stand for … in GGGAAUGGAUCCACAUCUACGAAUUC…UUCACUGCAGACUUGACGAAGCUG).
Outline: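 Working in 50 μL HEPES/NaCl/KCl/MgCl2/CaCl2 buffer with 5% acetonitrile at pH 6.9–7.0, mutagenized RNA pools (0.43 μM; 21-nt variable region) were reacted with 2–1250 μM of each biotinyl-aminoacyl-oxazolone for 90 minutes at room temperature. Streptavidin capture followed, with quantification by triplicate qPCR and Illumina sequencing. Catalytic enhancement is reported as median kA over the uncatalyzed rate, the low-activity peak of a bimodal Gaussian fit to the data.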

Sequence | self-aminoacylation
AAGAUGGCUAAUAGUCGCAAG [Fam3.1 aminoacylation ribozyme variant] | 2.14
AAGCUUACUAAUAGUCGCAAG [Fam3.1 aminoacylation ribozyme variant] | 3.02
AAGCUUGCUAAUAAUCGCAAG [Fam3.1 aminoacylation ribozyme variant] | 2.2
AAGCUUGCUAAUAGUCCCAAG [Fam3.1 aminoacylation ribozyme variant] | 3.57
AAGGUUGCUAAUAGUCCCAAG [Fam3.1 aminoacylation ribozyme variant] | 2.86
AAGGUUGCUACUAGUCGCAAG [Fam3.1 aminoacylation ribozyme variant] | 4
AAGUAUGCUAAGAGUCGCAAG [Fam3.1 aminoacylation ribozyme variant] | 4.08
AAGUAUGCUAAUAGUCGCUAG [Fam3.1 aminoacylation ribozyme variant] | 2.24
AAGUCUCCUAAUAGUCGCAAG [Fam3.1 aminoacylation ribozyme variant] | 3.11
AAGUCUGCUGAUAGUCGCAAG [Fam3.1 aminoacylation ribozyme variant] | 3.91
AAGUUAGCGAAUAGUCGCAAG [Fam3.1 aminoacylation ribozyme variant] | 2.1
AAGUUAGCUAAUUGUCGCAAG [Fam3.1 aminoacylation ribozyme variant] | 2.54
AAGUUCGCUAGUAGUCGCAAG [Fam3.1 aminoacylation ribozyme variant] | 4.51
AAGUUUAAUAAUAGUCGCAAG [Fam3.1 aminoacylation ribozyme variant] | 2.22
AAGUUUACUAAUAGUCGCACG [Fam3.1 aminoacylation ribozyme variant] | 2.22
AAGUUUACUAAUAGUCGUAAG [Fam3.1 aminoacylation ribozyme variant] | 2.3
AAGUUUCCAAAUAGUCGCAAG [Fam3.1 aminoacylation ribozyme variant] | 2.83

Sequence | self-aminoacylation
AAGUUUCCUAAUAGUCUCAAG [Fam3.1 aminoacylation ribozyme variant] | 2.15
AAGUUUGCGCAUAGUCGCAAG [Fam3.1 aminoacylation ribozyme variant] | 2.97
AAGUUUGCUAAAAGUCGCAUG [Fam3.1 aminoacylation ribozyme variant] | 2.71
AAGUUUGCUAACAGUCGCAGG [Fam3.1 aminoacylation ribozyme variant] | 3.44
AAGUUUGCUAAUACUCGCGAG [Fam3.1 aminoacylation ribozyme variant] | 5.73
AAGUUUGCUAAUGGCCGCAAG [Fam3.1 aminoacylation ribozyme variant] | 4.21
AAGUUUGCUCACAGUCGCAAG [Fam3.1 aminoacylation ribozyme variant] | 2.76
AAGUUUGCUCAUAGUCGCAGG [Fam3.1 aminoacylation ribozyme variant] | 2.92
AAGUUUGGUAAAAGUCGCAAG [Fam3.1 aminoacylation ribozyme variant] | 2.32
AAGUUUUCUAAUAGCCGCAAG [Fam3.1 aminoacylation ribozyme variant] | 2.19
AAUUUUGCUAAUGGUCGCAAG [Fam3.1 aminoacylation ribozyme variant] | 3.61
ACACACUUCAAGCAAUCGAUC [Fam1B.1 aminoacylation ribozyme variant] | 2.02
ACGUUAGCUAAUAGUCGCAAG [Fam3.1 aminoacylation ribozyme variant] | 3.08
ACUCACCUAGGUCAUCGUGUG [Fam2.2 aminoacylation ribozyme variant] | 4.06
AGGUUUGUUAAUAGUCGCAAG [Fam3.1 aminoacylation ribozyme variant] | 3.87
AGUCACCUAGGUCAUCGUGUG [Fam2.2 aminoacylation ribozyme variant] | 7.83
